Test results reported in the supplement of paper PMC9233669.
Variants at the floor of the assay were thinned out.

Legend:
biotinyl-Phe-oxazolone = assay: self-aminoacylation, catalytic enhancement (BFO) (fold over background); higher = more active; k-Seq, kA / k0A0; sequences stand for … in GGGAAUGGAUCCACAUCUACGAAUUC…UUCACUGCAGACUUGACGAAGCUG
Summary of the method: (§1)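 Mutagenized RNA pools with a 21-nt variable region (0.43 μM) reacted with each biotinyl-aminoacyl-oxazolone at 2–1250 μM. Reactions ran in 50 μL HEPES/NaCl/KCl/MgCl2/CaCl2 buffer with 5% acetonitrile, pH 6.9–7.0, for 90 minutes at room temperature. Streptavidin-captured RNA was quantified by triplicate qPCR and Illumina sequencing, and per-sequence fraction reacted was fit to a pseudo-first-order model with 1000 bootstraps. Catalytic enhancement is median kA divided by the uncatalyzed rate, the low-activity peak of a bimodal Gaussian fit.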

biotinyl-Leu-oxazolone = assay: self-aminoacylation, catalytic enhancement (BLO) (fold over background); higher = more active; k-Seq, kA / k0A0; sequences stand for … in GGGAAUGGAUCCACAUCUACGAAUUC…UUCACUGCAGACUUGACGAAGCUG
Summary of the method: as §1

biotinyl-Ile-oxazolone = assay: self-aminoacylation, catalytic enhancement (BIO) (fold over background); higher = more active; k-Seq, kA / k0A0; sequences stand for … in GGGAAUGGAUCCACAUCUACGAAUUC…UUCACUGCAGACUUGACGAAGCUG
Summary of the method: as §1

biotinyl-Trp-oxazolone = assay: self-aminoacylation, catalytic enhancement (BWO) (fold over background); higher = more active; k-Seq, kA / k0A0; sequences stand for … in GGGAAUGGAUCCACAUCUACGAAUUC…UUCACUGCAGACUUGACGAAGCUG
Summary of the method: as §1

biotinyl-Met-oxazolone = assay: self-aminoacylation, catalytic enhancement (BMO) (fold over background); higher = more active; k-Seq, kA / k0A0; sequences stand for … in GGGAAUGGAUCCACAUCUACGAAUUC…UUCACUGCAGACUUGACGAAGCUG
Summary of the method: as §1

biotinyl-Val-oxazolone = assay: self-aminoacylation, catalytic enhancement (BVO) (fold over background); higher = more active; k-Seq, kA / k0A0; sequences stand for … in GGGAAUGGAUCCACAUCUACGAAUUC…UUCACUGCAGACUUGACGAAGCUG
Summary of the method: as §1

Row | Sequence | self-aminoacylation (biotinyl-Phe-oxazolone) | self-aminoacylation (biotinyl-Leu-oxazolone) | self-aminoacylation (biotinyl-Ile-oxazolone) | self-aminoacylation (biotinyl-Trp-oxazolone) | self-aminoacylation (biotinyl-Met-oxazolone) | self-aminoacylation (biotinyl-Val-oxazolone)
1 | AUUCACCUAUGUGAUCGGGUG [Fam2.2 aminoacylation ribozyme variant] | 15.9 | 2.74 | 1.69 | 2.25 | 2.14 | 1.99
2 | CUACUUCAAACAAUUGGUUUG [Fam1A.1 aminoacylation ribozyme variant] | 0.803 | 0.721 | 0.757 | 0.708 | 0.676 | 0.7
3 | AAGUUUGCUAAUAGUUGCAAU [Fam3.1 aminoacylation ribozyme variant] | 1.25 | 0.88 | 1.26 | 1.29 | 1.15 | 1.31
4 | AUUCACAUAUGUCAUCGGGUG [Fam2.2 aminoacylation ribozyme variant] | 52.5 | 9.08 | 4.44 | 7.3 | 7.09 | 4.21
5 | AUUCACCUCCGUCAUCGGGUG [Fam2.2 aminoacylation ribozyme variant] | 70.3 | 10.8 | 5.62 | 8.32 | 8.59 | 4.91
6 | GUUAACCUGGUCAUCGAGUGA [Fam2.1 aminoacylation ribozyme variant] | 24.2 | 6.73 | 4.69 | 8.69 | 6.75 | 3.95
7 | AUUCACCAAGGUCAUUGGGUG [Fam2.2 aminoacylation ribozyme variant] | 49.8 | 9.21 | 4.07 | 6.53 | 6.78 | 4.54
8 | AUUCAACUAAGUCAUCGGGUG [Fam2.2 aminoacylation ribozyme variant] | 69.4 | 10.7 | 4.92 | 7.24 | 7.12 | 4.13
9 | CUUCACCUAGGUCAUUGGGUG [Fam2.2 aminoacylation ribozyme variant] | 12.3 | 2.25 | 1.98 | 2.35 | 2.36 | 2.22
10 | AUUCACCUAGGGCAUCCGGUG [Fam2.2 aminoacylation ribozyme variant] | 54.4 | 12.6 | 10.5 | 8.38 | 10.7 | 8.74
11 | CUACUUCAAAGUAUCGGUCUG [Fam1A.1 aminoacylation ribozyme variant] | 1.44 | 0.941 | 0.979 | 0.979 | 0.824 | 0.975
12 | AUUCACCUAAGUCAUAGGGUG [Fam2.2 aminoacylation ribozyme variant] | 5.88 | 1.92 | 1.32 | 1.3 | 1.87 | 1.21
13 | CUACUUCAAAUAAUCGAUCUG [Fam1A.1 aminoacylation ribozyme variant] | 1.94 | 0.495 | 0.669 | 0.839 | 0.534 | 0.592
14 | AAGCCUGCUAAUAGUCGCAAG [Fam3.1 aminoacylation ribozyme variant] | 37.3 | 1.64 | 1.86 | 11.1 | 1.61 | 1.77
15 | AUUACCCUGGUCAUCCCGUGA [Fam2.1 aminoacylation ribozyme variant] | 43.3 | 9.66 | 3.61 | 9.33 | 7.44 | 4.22
16 | CUACAUCAAACAAUCGGUCCG [Fam1A.1 aminoacylation ribozyme variant] | 0.932 | 0.805 | 0.838 | 0.83 | 1.1 | 0.872
17 | AUUCAACUAGGUUAUCGGGUG [Fam2.2 aminoacylation ribozyme variant] | 22.1 | 3.61 | 2.21 | 3.46 | 3.29 | 2.45
18 | AAGGUUGCUAAUCGUCGCAAG [Fam3.1 aminoacylation ribozyme variant] | 3.36 | 1.09 | 1.27 | 2.14 | 1.07 | 1.2
19 | AUUCAACUAGUUCAUCGGGUG [Fam2.2 aminoacylation ribozyme variant] | 16.8 | 2.77 | 1.95 | 2.29 | 2.82 | 1.95
20 | AUUCACCCAGGUCAUCUGGUG [Fam2.2 aminoacylation ribozyme variant] | 28.2 | 4.84 | 2.35 | 3 | 3.99 | 2.25
21 | AUUACCCUAGUUAUCGAGUGA [Fam2.1 aminoacylation ribozyme variant] | 50.7 | 8.3 | 3.77 | 11.1 | 8.68 | 3.83
22 | AAGUUUGCUAAUUGGCGCAAG [Fam3.1 aminoacylation ribozyme variant] | 2.62 | 1.1 | 0.829 | 0.714 | 0.964 | 0.935
23 | CCACACUUCAAGCGACCGGUC [Fam1B.1 aminoacylation ribozyme variant] | 0.483 | 1.33 | 1.22 | 1.63 | 1.11 | 1.52
24 | CCACAAUUCAAGCAAUCGAUC [Fam1B.1 aminoacylation ribozyme variant] | 0.898 | 0.685 | 0.742 | 0.675 | 0.699 | 0.888
25 | CCACAUUUCACGCAAUCGGUC [Fam1B.1 aminoacylation ribozyme variant] | 2.13 | 2.68 | 2.33 | 2.16 | 2.75 | 2.68
26 | AUUCACCUAGGUCACCGGGGG [Fam2.2 aminoacylation ribozyme variant] | 21.4 | 3.12 | 3.62 | 4.38 | 3.37 | 3.51

Row | Sequence | self-aminoacylation (biotinyl-Phe-oxazolone) | self-aminoacylation (biotinyl-Leu-oxazolone) | self-aminoacylation (biotinyl-Ile-oxazolone) | self-aminoacylation (biotinyl-Trp-oxazolone) | self-aminoacylation (biotinyl-Met-oxazolone) | self-aminoacylation (biotinyl-Val-oxazolone)
27 | AUUCUCCCAGGUCAUCGGGUG [Fam2.2 aminoacylation ribozyme variant] | 90 | 12.8 | 6.87 | 9.06 | 10.2 | 6.91
28 | CCACACUUCACGAAAUCGGUC [Fam1B.1 aminoacylation ribozyme variant] | 0.814 | 1.16 | 0.987 | 1.02 | 1.07 | 1.09
29 | AAGGUUGCUAAUAGUGGCAAG [Fam3.1 aminoacylation ribozyme variant] | 0.712 | 0.977 | 0.698 | 0.638 | 0.863 | 0.79
30 | AAGUGUCCUAAUAGUCGCAAG [Fam3.1 aminoacylation ribozyme variant] | 0.985 | 0.952 | 1.18 | 0.664 | 0.945 | 0.995
31 | AAUUUUGCUAAUUGUCGCAAG [Fam3.1 aminoacylation ribozyme variant] | 2.61 | 2.13 | 2.45 | 2.21 | 1.92 | 1.73
32 | AUUCAUCCAGGUCAUCGGGUG [Fam2.2 aminoacylation ribozyme variant] | 47.8 | 9.76 | 4.96 | 6.96 | 7.87 | 4.75
33 | AUUCCCCUGGUCAUCGAGAGA [Fam2.1 aminoacylation ribozyme variant] | 3.27 | 1.17 | 1.46 | 1.96 | 1.68 | 1.47
34 | CCACACUUCAUGCAAGCGGUC [Fam1B.1 aminoacylation ribozyme variant] | 0.633 | 1.01 | 1.08 | 0.681 | 0.854 | 0.835
35 | GUUCACCUAGGUUAUCGGGUG [Fam2.2 aminoacylation ribozyme variant] | 34 | 4.08 | 3.41 | 5.35 | 4.84 | 3.44
36 | CUACUUUAAACAAUCGGUGUG [Fam1A.1 aminoacylation ribozyme variant] | 0.998 | 0.855 | 0.722 | 0.673 | 0.925 | 0.737
37 | AUCACCCCGGUCAUCGAGUGA [Fam2.1 aminoacylation ribozyme variant] | 52.6 | 10.2 | 4.51 | 9.73 | 8.33 | 4.47
38 | AUUCACCUAGGACGUCGGGUG [Fam2.2 aminoacylation ribozyme variant] | 9.18 | 1.91 | 1.66 | 1.42 | 1.91 | 1.88
39 | AAGUUUGCAAAUAUUCGCAAG [Fam3.1 aminoacylation ribozyme variant] | 1.3 | 1.09 | 0.999 | 1.35 | 1.25 | 1.03
40 | AUUCGCAUAGGUCAUCGGGUG [Fam2.2 aminoacylation ribozyme variant] | 66 | 12.2 | 5.95 | 9.43 | 9.49 | 7.08
41 | ACUCACCUAGGUCAUAGGGUG [Fam2.2 aminoacylation ribozyme variant] | 1.46 | 1.39 | 1.31 | 1.58 | 1.57 | 1.36
42 | CUACUCCAAACAAUAGGUCUG [Fam1A.1 aminoacylation ribozyme variant] | 1.17 | 0.744 | 0.839 | 0.734 | 0.938 | 0.776
43 | CCACACGUCAUGCAAUCGGUC [Fam1B.1 aminoacylation ribozyme variant] | 0.974 | 0.972 | 1.18 | 1.61 | 1.26 | 1.34
44 | CCACACUUCAAGGAAUCGGUG [Fam1B.1 aminoacylation ribozyme variant] | 52.1 | 10.5 | 4.9 | 6.57 | 7.21 | 4.61
45 | CUCCUUCAAACAAUCGCUCUG [Fam1A.1 aminoacylation ribozyme variant] | 2.77 | 0.78 | 0.73 | 2.01 | 0.531 | 0.666
46 | CUACUUCAACCAAUAGGUCUG [Fam1A.1 aminoacylation ribozyme variant] | 1.05 | 0.743 | 0.947 | 0.753 | 0.703 | 0.777
47 | AAUACCCUGGUUAUCGAGUGA [Fam2.1 aminoacylation ribozyme variant] | 30.8 | 7.89 | 3.37 | 9.84 | 6.97 | 3.59
48 | CUACUUCAAAGAAGCGGUCUG [Fam1A.1 aminoacylation ribozyme variant] | 1.17 | 0.82 | 1.09 | 0.832 | 1.01 | 0.988
49 | AAUACCCUUGUCAUCGAGUGA [Fam2.1 aminoacylation ribozyme variant] | 5.23 | 4.72 | 2.42 | 5.93 | 4.58 | 2.43
50 | AUUACCCUUGUCAUAGAGUGA [Fam2.1 aminoacylation ribozyme variant] | 36.6 | 8.53 | 4.36 | 11 | 8.7 | 4.59
51 | AUGACCCCGGUCAUCGAGUGA [Fam2.1 aminoacylation ribozyme variant] | 39.9 | 8.55 | 3.51 | 6.78 | 6.75 | 3.3
